Measured values taken from CN114591430A.
Values joined by “and” are separate entries in the source; they are usually repeats but may differ in a detail not shown here. Equal entries are not always repeated.

Key:
牛血清白蛋白(BSA) (bovine) [1] = target: 牛血清白蛋白(BSA) (bovine) (UniProt P02769); experiment: indirect ELISA, BSA coated at 1 ug/ml, purified antibody at dilution 32K, HRP goat anti-mouse IgG
牛血清白蛋白(BSA) (bovine) [2] = target: 牛血清白蛋白(BSA) (bovine) (UniProt P02769); experiment: ELISA, BSA coated at 1 ug/ml, biotin-labelled antibody at dilution 8K, HRP-avidin
牛血清白蛋白(BSA) (bovine) [3] = target: 牛血清白蛋白(BSA) (bovine) (UniProt P02769); experiment: ELISA, BSA coated at 1 ug/ml, biotin-labelled antibody at dilution 1K, HRP-avidin
牛血清白蛋白(BSA) (bovine) [4] = target: 牛血清白蛋白(BSA) (bovine) (UniProt P02769); experiment: indirect ELISA, BSA coated at 1 ug/ml, purified antibody at dilution 256K, HRP goat anti-mouse IgG
牛血清白蛋白(BSA) (bovine) [5] = target: 牛血清白蛋白(BSA) (bovine) (UniProt P02769); experiment: sandwich ELISA, coat B2 2 ug/ml, BSA 6 ng/ml, detection biotin-B6 0.2 ug/ml
牛血清白蛋白(BSA) (bovine) [6] = target: 牛血清白蛋白(BSA) (bovine) (UniProt P02769); experiment: indirect ELISA, BSA coated at 1 ug/ml, purified antibody at dilution 4K, HRP goat anti-mouse IgG
牛血清白蛋白(BSA) (bovine) [7] = target: 牛血清白蛋白(BSA) (bovine) (UniProt P02769); experiment: ELISA, BSA coated at 1 ug/ml, biotin-labelled antibody at dilution 1024K, HRP-avidin
HEK293细胞裂解液 [8] = experiment: sandwich ELISA, coat B2, detection biotin-B6, lysate 250 ug/ml
CHO细胞裂解液 [9] = experiment: as above
Vero细胞裂解液 [10] = experiment: as above
CHO细胞裂解液 [11] = experiment: sandwich ELISA, coat B2, detection biotin-B6, lysate 500 ug/ml
Vero细胞裂解液 [12] = experiment: as above
牛血清白蛋白(BSA) (bovine) [13] = target: 牛血清白蛋白(BSA) (bovine) (UniProt P02769); experiment: sandwich ELISA, coat B2 2 ug/ml, BSA 1 ng/ml (positive sample), detection biotin-B6 0.2 ug/ml
牛血清白蛋白(BSA) (bovine) [14] = target: 牛血清白蛋白(BSA) (bovine) (UniProt P02769); experiment: indirect ELISA, BSA coated at 1 ug/ml, purified antibody at dilution 8K, HRP goat anti-mouse IgG
牛血清白蛋白(BSA) (bovine) [15] = target: 牛血清白蛋白(BSA) (bovine) (UniProt P02769); experiment: ELISA, BSA coated at 1 ug/ml, biotin-labelled antibody at dilution 128K, HRP-avidin
牛血清白蛋白(BSA) (bovine) [16] = target: 牛血清白蛋白(BSA) (bovine) (UniProt P02769); experiment: sandwich ELISA, coat B2 2 ug/ml, BSA 1 ng/ml, detection biotin-B1 0.2 ug/ml
HEK293细胞裂解液 [17] = experiment: sandwich ELISA, coat B2, detection biotin-B6, lysate 62.5 ug/ml
CHO细胞裂解液 [18] = experiment: as above
Vero细胞裂解液 [19] = experiment: as above
HEK293细胞裂解液 [20] = experiment: sandwich ELISA, coat B2, detection biotin-B6, lysate 125 ug/ml
CHO细胞裂解液 [21] = experiment: as above
Vero细胞裂解液 [22] = experiment: as above
牛血清白蛋白(BSA) (bovine) [23] = target: 牛血清白蛋白(BSA) (bovine) (UniProt P02769); experiment: ELISA, BSA coated at 1 ug/ml, biotin-labelled antibody at dilution 64K, HRP-avidin
牛血清白蛋白(BSA) (bovine) [24] = target: 牛血清白蛋白(BSA) (bovine) (UniProt P02769); experiment: sandwich ELISA, coat B2 2 ug/ml, BSA 1 ng/ml, detection biotin-B6 0.2 ug/ml
牛血清白蛋白(BSA) (bovine) [25] = target: 牛血清白蛋白(BSA) (bovine) (UniProt P02769); experiment: sandwich ELISA, coat B2 2 ug/ml, BSA 6 ng/ml, detection biotin-B6 0.2 ug/ml, mean of A and B
牛血清白蛋白(BSA) (bovine) [26] = target: 牛血清白蛋白(BSA) (bovine) (UniProt P02769); experiment: sandwich ELISA, coat B2 2 ug/ml, BSA 1 ng/ml, detection biotin-B5 0.2 ug/ml
牛血清白蛋白(BSA) (bovine) [27] = target: 牛血清白蛋白(BSA) (bovine) (UniProt P02769); experiment: sandwich ELISA, coat B2 2 ug/ml, BSA 1.5 ng/ml, detection biotin-B6 0.2 ug/ml
牛血清白蛋白(BSA) (bovine) [28] = target: 牛血清白蛋白(BSA) (bovine) (UniProt P02769); experiment: indirect ELISA, BSA coated at 1 ug/ml, purified antibody at dilution 16K, HRP goat anti-mouse IgG
牛血清白蛋白(BSA) (bovine) [29] = target: 牛血清白蛋白(BSA) (bovine) (UniProt P02769); experiment: sandwich ELISA, coat B2 2 ug/ml, BSA 1 ng/ml, detection biotin-B3 0.2 ug/ml
牛血清白蛋白(BSA) (bovine) [30] = target: 牛血清白蛋白(BSA) (bovine) (UniProt P02769); experiment: ELISA, BSA coated at 1 ug/ml, biotin-labelled antibody at dilution 4K, HRP-avidin
牛血清白蛋白(BSA) (bovine) [31] = target: 牛血清白蛋白(BSA) (bovine) (UniProt P02769); experiment: ELISA, BSA coated at 1 ug/ml, biotin-labelled antibody at dilution 2K, HRP-avidin

Chain of UniProt P02769 (P02769 25-607): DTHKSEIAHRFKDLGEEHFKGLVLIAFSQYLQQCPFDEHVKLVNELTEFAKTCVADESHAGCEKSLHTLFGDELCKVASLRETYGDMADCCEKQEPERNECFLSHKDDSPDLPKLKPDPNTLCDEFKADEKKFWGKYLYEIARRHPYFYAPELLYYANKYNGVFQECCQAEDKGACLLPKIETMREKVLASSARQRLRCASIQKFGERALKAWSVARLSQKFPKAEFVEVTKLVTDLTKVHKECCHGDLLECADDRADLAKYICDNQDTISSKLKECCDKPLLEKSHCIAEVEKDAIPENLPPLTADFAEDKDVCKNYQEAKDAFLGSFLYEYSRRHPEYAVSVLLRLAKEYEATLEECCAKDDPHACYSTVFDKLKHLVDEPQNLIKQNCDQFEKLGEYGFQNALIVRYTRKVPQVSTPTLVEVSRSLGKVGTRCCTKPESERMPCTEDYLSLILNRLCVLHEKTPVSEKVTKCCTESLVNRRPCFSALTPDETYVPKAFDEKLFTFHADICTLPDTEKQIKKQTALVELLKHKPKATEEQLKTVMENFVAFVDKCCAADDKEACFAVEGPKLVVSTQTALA

B1: BSA抗体B2 (antibody, V domains shown)
VH: VKLQESGGGLVKPGGSLKLSCAASGFTFSLYDESWVRQTPEKRLEWVAEIFLGVYRYVPESKVRFTMSRDNAKNTLYLQMSSLRSEDTAMYYCVRLCYWEPEVKKCWGQGTTVTVSS
VL: DIELTQSPLTLSVTIGQPASISCESDLSLKESLDWLLQRPGQSPKRLIYEDLNADCGVPDRFTGSGSGTDSTLKISRVEAEDLGVYYCEIKGTFRWSFGGGTKLEIK
牛血清白蛋白(BSA) (bovine) [1]
  OD450: 0.403
牛血清白蛋白(BSA) (bovine) [2]
  OD450: 1.81
牛血清白蛋白(BSA) (bovine) [3]
  OD450: 2.3
牛血清白蛋白(BSA) (bovine) [4]
  OD450: 0.208
牛血清白蛋白(BSA) (bovine) [5]
  OD450: 0.684 and 0.692
牛血清白蛋白(BSA) (bovine) [6]
  OD450: 0.9
牛血清白蛋白(BSA) (bovine) [7]
  OD450: 0.175
HEK293细胞裂解液 [8]
  OD450: 0.134
CHO细胞裂解液 [9]
  OD450: 0.134
Vero细胞裂解液 [10]
  OD450: 0.14
CHO细胞裂解液 [11]
  OD450: 0.135
Vero细胞裂解液 [12]
  OD450: 0.134
牛血清白蛋白(BSA) (bovine) [13]
  OD450: 0.392 and 0.389
牛血清白蛋白(BSA) (bovine) [14]
  OD450: 0.728
牛血清白蛋白(BSA) (bovine) [15]
  OD450: 0.821
牛血清白蛋白(BSA) (bovine) [16]
  OD450: 0.312 and 0.315
HEK293细胞裂解液 [17]
  OD450: 0.142
CHO细胞裂解液 [18]
  OD450: 0.129
Vero细胞裂解液 [19]
  OD450: 0.137
HEK293细胞裂解液 [20]
  OD450: 0.14
CHO细胞裂解液 [21]
  OD450: 0.14
Vero细胞裂解液 [22]
  OD450: 0.132
牛血清白蛋白(BSA) (bovine) [23]
  OD450: 1.12
牛血清白蛋白(BSA) (bovine) [24]
  OD450: 0.38 and 0.378
牛血清白蛋白(BSA) (bovine) [25]
  OD450 (平均值): 0.688
牛血清白蛋白(BSA) (bovine) [26]
  OD450: 0.312 and 0.315
牛血清白蛋白(BSA) (bovine) [27]
  OD450: 0.404 and 0.412
牛血清白蛋白(BSA) (bovine) [28]
  OD450: 0.537
牛血清白蛋白(BSA) (bovine) [29]
  OD450: 0.342 and 0.346
牛血清白蛋白(BSA) (bovine) [30]
  OD450: 2.02
牛血清白蛋白(BSA) (bovine) [31]
  OD450: 2.21
